From the nanobody polyreactivity screen of Harvey et al. (2022)

Assay: yeast display, Sf9 membrane polyspecificity reagent, FACS + sequencing; frameworks hold sequencing errors
Method in brief: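 Genes from sorted yeast were amplified by colony PCR, read by MiSeq 2 × 250 sequencing and filtered on CDR length. These cells carried a synthetic nanobody library in Saccharomyces cerevisiae BJ5465 and were sorted by FACS into low and high (top ~1%) gates on anti-HA and streptavidin fluorescence. Polyreactivity is labelled according to the gate of origin.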

## QVQLVESGGGLVQAGGRLRLSCAASASTFSDYAMGWYRQAPGKERELVATITSTGDTNYADSVKGRFTISRDNAKNTVYFQMYSLKPVDTAVYYCAAQHKKYGKRGLWNNFGYWGQGTQVTVSS
  polyreactivity (PSR sort gate): low polyreactivity

## QVQLVESGGGLVQAGGSLRLSCAASGITFRTYAMGWYRQAPGKERELVAAISGSSTSTYYADSVKGRFTISRDNAKNTVYLQLNSLKPEDSAVYYCAAGYRVSVYRYYYWGQGTQVTVSS
  polyreactivity (PSR sort gate): high polyreactivity

## QVQLVESGGGLVQAGGSLRLSCAASGSTFILYAMGWYRQAPGKERELVAAISKRGGSTYYADSVKGRFTISRDNATHTVYFQLKSLKPEDTAVYYLNKKNPQDLTENGYWGQGTEVTVSS
  polyreactivity (PSR sort gate): high polyreactivity

## QVQLVESGGGLVQAGGSLRLSCAASGFIFAWNAMGWYRLAPGKERELVAAITSAGSTKYADSVKGRFTISRDNAKNTVYLQMNSLKPEDTAVYYCAAARFRIYCGQGTQVTVSS
  polyreactivity (PSR sort gate): high polyreactivity

## QVQLVESGGGLVQAGGSLRFSCAGSGSTFRNYAMGWYRQAPGQERAFVATISSAGGTTYYADSVKGRFTISRDKAKNTLYVQMNSLNPEDTAVYYCAADQHSYRYGGYYYWGQGTQVTVSS
  polyreactivity (PSR sort gate): low polyreactivity

## QVQLEESGGGLVQAGGSLRLSCAATGYTFEANAMGWYRQAPGKERELVAVITWTGGSTYYADSVKGRFTISRDNAKYTVYLQMNSLKPEDTAVYYCAADGVVPGRFFWPAHEYDFWGQGTQVTVSS
  polyreactivity (PSR sort gate): low polyreactivity

## QVQLVESGGGLVQAGGSLRLSCAASGITFWAYAMGWYRPAPGKARELVAAITSGGSTNYADSVKGRFTISRDNAKNTVYLQLNSLKPEDTAVYYCAADWAYYSTALDYWGQGTQVTVSS
  polyreactivity (PSR sort gate): low polyreactivity

## RVQLQESGGGLVQAGGSLRLICAASGTNFIRGDMGWYRQAPGKEREFVATIDNGSNTYYADSEKGRFTISRDNAKNAVYLQMNCLKPGDTAVYYCVVDYQLSGRLRYWGQGTQVTLSS
  polyreactivity (PSR sort gate): low polyreactivity

## QVQLVESGGGLVQAGGSLRLSCAASGRIFQGYVMGWYRQAPGKERELVAVISRRGGITNYADSVKGRFTISRDNAKNTVYLQMISLKPEDTAVYYCNDVTRVYNNGQYGYWGQGTQVTVSS
  polyreactivity (PSR sort gate): high polyreactivity

## QVQLVESGGGLVQAGGSLRLSCAASGRTFRWYAMGWYRQAPGKERELVAAISQSGGSTYYADSVKGRFTISRDNAKNSVYLQMNSLKPVDTAVYYCAKVTYRGYYSWGQGTQLTVSS
  polyreactivity (PSR sort gate): high polyreactivity

## QVQLVESGGGLVQAGGSLRLSCAASGSIFYRYAMGWYRQAPGKERELVAAISYNGGRTYYADSVKGRFTISRDNAKNTVYLQMNSLKPEDTAVYYCNAAGRDDAYDYWGQGTQVTVSS
  polyreactivity (PSR sort gate): high polyreactivity

## QVQLVESGGGLVQAGGSLRLSCAASGFTFDYYAMGWYRQAPGKERELVAAINWSGAITYYADSVKGRFTISRDNAKNTVYLQMNSLKPEDTAVYYCAARWGKFYGRFYWGMDYWGQGTQVTVSS
  polyreactivity (PSR sort gate): high polyreactivity

## QVQLVESGGGLVQAGGSLRLSCAASGSIFVVNAMGWYRPAPGKERELVAAISDSGDRTYYADSVKGRFTISRDNAKNTVYLLMNSLKPEDTAVYYCNTRYSPGYQGTEVDYWGQGTQVTVSS
  polyreactivity (PSR sort gate): low polyreactivity

## QVQLVESGGGLVQAGGSLRLSCAASGSIFFSNAMGWYRQAPGKERELVAAITSSGASTYYADSVKGRFTISRDNAKNTVYLQMNSLKPEDTAVYYCAVVGRGKRYGYWGQGTQVTVSS
  polyreactivity (PSR sort gate): high polyreactivity

## QVQLVESGGGLVQAGGSLRLSCAASGSIFPDNVMGWYRQAPGKEREFVAAISWTDGSTRYADSVKGRFTISRDNAKNTVYLQMNSLKPEDTAVYYCNVGTRASYQEGDYWGQGTQVTVSS
  polyreactivity (PSR sort gate): low polyreactivity

## QVQLVESGGGLVQAGGSLRLSCAASGYIFEVNAMGWYRQAPGKERELVATIDTSSGSTNYADSVKGRFTISRDNAKNTVYLQMNSLKPEDTAVYYCAADDETVFLQDDYWGQGTQVTVSS
  polyreactivity (PSR sort gate): low polyreactivity

## QVQLVESGGGLVQAGGSLRLSCAASGSILPLYAMGGYRQAPGKERELVATISNAGSTTYADSVKGRFTISRDNAKNTVYLQMNSLKPEVTAVYYCNAESEWGWVYVGYDYWGQGTQVTVSS
  polyreactivity (PSR sort gate): low polyreactivity

## QVQLVESGGGLVQAGGSLRLSCAASGLIFYDNMGWYRQAPGKERELVAAISSSGGSTNYADSVKGRFTISRDNAKNTVYLQMNSLKPEDTAVYYCAADSYPAYLGFVGFDYWGQGTQVTVSS
  polyreactivity (PSR sort gate): low polyreactivity

## QVQLVESGGGLVQAGGSLRLSCAASGSIFSYYAMGWYRQAPGKERELVAAISSRGDGRTYYADSVKGRFTISRDNAKNTVYLQMNSLKPEDTAVYYCAAESSHYRLRDRDYWGQGTQVTVSS
  polyreactivity (PSR sort gate): high polyreactivity

## QVQLVESGGGLVQAGGSLRLSCAASGLIFSRYVMGWYRQAPGKERELVAAISRSGGSTYYADSVKGRFTISRDIAKNTVYLQMNSLKPEDTAVYYCNAGRRTGRYGYWGQGTQVTVSS
  polyreactivity (PSR sort gate): high polyreactivity

## QVQLVESGGGLVQAGGSLRLSCAASGSTFYVYAMGWYRQAPGKERELVAAITVRGGSTYYADSVKGRFTISRDNAKKTVYLQMNSLKPEDTAVYYCNAEGTYGYWRSYNYWGQGTQVTVSS
  polyreactivity (PSR sort gate): high polyreactivity

## QVQLVESGGGLVQAGGSLRLSCAASGSIFYTNAKGWYRPAPGKERELVAAISYGGTTTYADSVKGRFTISRDNAKNTVYLQMNSLIPEDTAVYYCNADWLYYGYWGYGHIWYDFWGQGTQVTVSS
  polyreactivity (PSR sort gate): low polyreactivity

## QVQLVESGGGLVQAGGSLRLSCAASGFTFYKYAMGCYRQPPGKERELVAAITGRGGSTYYADSVKGRFTISRDNAKNTVYLQMNILKPEDTAVYYCAARTPSYEMDYWGQGTQVTVSS
  polyreactivity (PSR sort gate): high polyreactivity

## QVQLVESGGGLVQAGGRLRLSCAASGRTFRKYTMGWYRQAPGKEREFDAAITYSGGSTYYADSVKGRFTISRDNAKNTVYLQMNSLKPEDTAVYYCVTRGGYYLYYSYYYWGQGTQVTVSS
  polyreactivity (PSR sort gate): high polyreactivity

## QVQLVESGGGLVQEGGSLRLSCAASGLTFAGYAMGWYRQATGKERELVAAITTGGSTYYADSVNGRFTISRDNAKNTVYLQMNSLKPEDTAVYYCAARRVRKALVGYGYWGQGTQVTVSS
  polyreactivity (PSR sort gate): high polyreactivity

## QVQLVDSGGGLVQAGGSLRLSCASSGSTFVLYAMGWYRQAPGKERELVAAITWSGDDTYYADSVKGRFTISRDNAKNTVYLQMNSLKPEDTAVYYCAAAYADWGQGTQVTVSS
  polyreactivity (PSR sort gate): low polyreactivity

## QVQLVESGGGLVQAGGSLRLSCAASGFILGYYAKGWSRQAPGKERELDAITSGDSTYYADSVKGRFTISRDTAKNTVYLQMNSLKPEDTAVYYCNAEASIERRYRGIIAVITRYDYWAQGTQVTVSS
  polyreactivity (PSR sort gate): high polyreactivity

## QVQLVESGGGLVQAGGSLRLSCAASGNIFGSNAMGWYRQAPGKERELVAAISGSNGGTYYADSVKGRFTISRDNAKNTVYLQMNSLKPEDTAVYYCNADFFSRWGYRYMDYWGQGTQVTVSS
  polyreactivity (PSR sort gate): low polyreactivity

## QVQLVESGGGLVQAGGSLRLSCAASGYTFNRYAMGWYRQAPGKERELVAAISKRGGSTNYADSVKGRFTISRDNAKNTVYLQMNSLKPEDTAVYYCAKRWRSYSRGGDYWGQGTQVTVSS
  polyreactivity (PSR sort gate): high polyreactivity

## QVQLVESGGGLVQAGGSLRLSCAASGSTFYFYDMGWYRQAPGKERELVATIDDGGGSTYYADSVKGRFTISRDNAKNTVYLQMNSLKPEDTAVYYCAADYFVYPDDWYDYWGQGTQVTVSS
  polyreactivity (PSR sort gate): low polyreactivity

## QVQLVESGGGLVQAGGSLRLSCAASGRIFPTNAMGWYRQAPGKERELVASITRSGSTYYADSVKGRFTISRDNAKNTVYLQMNSLKPEDTAVYYCAADRSAVQFSAFLEYDYWGQGTQVTVSS
  polyreactivity (PSR sort gate): low polyreactivity

## QVQLVESGGGLVQAGGSLRLSCAATGSIFGDNAMGWYRQAPGKARELVAAITSSGGSTYYADSVKGRFTISRDNAKNTVYLQMNSLKPEDTAVYYCNADFGYGWYLRYDYWGQGSQVTVSS
  polyreactivity (PSR sort gate): high polyreactivity

## QVQLVESGGGLVQAGGSLRLSCAASGITIVNYVMGWYRQAPGKERELVAAISLGGGTYYADSVKGRFTISRDNAKNTVYLQMNSLKADDTAVYYGNASYGGLAFYIGVYVTGYDYWRQGTQVTVSS
  polyreactivity (PSR sort gate): low polyreactivity

## QDQLVESGGGLVQAGGSLRLSCAASGRTFRAYAMGWSRQAPGKERELVASISRRGGSTYYADSVKGRFTISRDNAKNTDYLQMNSLNPEDTAVYYCAASDKYLQYDDWGQGTEVTVSS
  polyreactivity (PSR sort gate): high polyreactivity

## QVQLVESGGGLVQAGGSLRLSCAASGSTFSDYTMGWYRQAPGKERELVAAITTIGGSTYYADSVKGRFTISRDNAKNTVYLQMNSLKPEDTAVYYCAAYYYYPFEYYYWGQGTQVTVSS
  polyreactivity (PSR sort gate): low polyreactivity

## QVQLVESGGGLVQAGGSLRLSCAASGSTFVDNDMGWYRQAPGKERELVAAIDQSGGSTSYADSVKGRFTISRDNAKNTVYLQMNSLKPEDTAVYYCATPSYTTAYVEGDYWGQGTQVTVSS
  polyreactivity (PSR sort gate): low polyreactivity

## QVQLVESGGGLVQAGGSLRLSCAASGFIFSYYVMGWYRQAPGKERELVAGISKRGGSTRYADSVKGRFTISRDNAKNTVYLQMNSLKPEDTAVYYCNRLPYLHFAGRLTNYDYWGQGTQVTVSS
  polyreactivity (PSR sort gate): high polyreactivity

## QVQLVESGGGLVQAGGSLRLSCAASGSAYHYAMGWYSQAPGKERELVASITWRGDTTYYADSVKGRFTISRDNAKITVYLQMNSLKPEDTAVYYCAARKFFRQGGKRYDYWGQGTQVTVSS
  polyreactivity (PSR sort gate): high polyreactivity

## QVHLVESGGGLVQAGGSLRLSCAASGRIFRVYAMGWYRQAPGKERELVAAIRWSTGSTYYADSVKGRFTISRDIAKNTVYLHMNSLKPEDTAVYYCASYYYSSCSKFDYWGQGTQVTVSS
  polyreactivity (PSR sort gate): high polyreactivity

## QDQLVESGGGLVQAGGSLRLICAASGSIFEPYVMGWYRQAPGKERELVAAIRQTGGSTYYADSVKGRFTISRDNAKNTVYLQMNSLKPEDTAVYYCNAEQNPSGLYDYRGVEGEMGYWGQGTQVTVSS
  polyreactivity (PSR sort gate): low polyreactivity

## QVQLVESGGGLVQAGGSLRLSCAASGFIFTGNVMGWYRQAPGKEREFVAAISRSGGNTYYADSVKGRFTISRDKAKNTVYLQMNSLKPEDTAVYYCAVPKHFVVSYDYWGQGTQVTVSS
  polyreactivity (PSR sort gate): high polyreactivity

## QVQLVESGGGLVQAGGSLRLSCAATGRTFRYYAMGWYRQAPGKERELVAAISSGGSTNYADSVKGRFTISRDNAKNTVYLQMNSLKPEDTAVYYCAALWSGNKFNYWGQGTQVTVSS
  polyreactivity (PSR sort gate): low polyreactivity

## QVQLVESGGGLVQAGGSLRLSCAASGFIFKGNAMGWYRQAPGKERELVAAISYSGGSTYYADSVKGRFTISRDNAKNTVYLQMNSLKPEDTAVYYCAALRWYHYGYWGQGTQVNVSS
  polyreactivity (PSR sort gate): high polyreactivity
